Laboratory results reported in article PMC4591687.

Molecular target: PDI C56A-FLAG (human) (UniProt P07237)
Assay: co-IP

UniProt P07237, sequence (P07237 18-508 C56A): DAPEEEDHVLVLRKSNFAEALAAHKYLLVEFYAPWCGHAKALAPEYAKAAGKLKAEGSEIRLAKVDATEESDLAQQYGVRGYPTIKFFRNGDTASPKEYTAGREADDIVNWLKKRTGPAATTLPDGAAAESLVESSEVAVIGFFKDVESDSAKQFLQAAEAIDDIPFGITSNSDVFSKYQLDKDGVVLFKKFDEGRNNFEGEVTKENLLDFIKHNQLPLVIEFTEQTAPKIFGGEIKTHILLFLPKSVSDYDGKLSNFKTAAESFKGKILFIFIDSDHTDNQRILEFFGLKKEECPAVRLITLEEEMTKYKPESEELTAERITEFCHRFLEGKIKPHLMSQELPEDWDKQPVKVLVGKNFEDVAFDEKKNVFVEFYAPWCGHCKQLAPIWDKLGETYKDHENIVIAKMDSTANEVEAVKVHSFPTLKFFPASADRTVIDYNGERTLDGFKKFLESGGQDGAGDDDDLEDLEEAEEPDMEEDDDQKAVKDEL

“Myc-epitope-tagged human C(A7)Y Akita mutant proinsulin (natural protein)” showed a stoichiometry N (proinsulin per PDI) of 1.
